The source of these data is paper PMC2413007 (2008).

No end group written: not given here. Pam2 = lipid part of the lipopeptide Pam2CSK4

The test deals with soluble form of human recombinant TLR2 (extracellular domain Glu 21-Leu 590) (human, UniProt O60603 21-590).
soluble form of human recombinant TLR2 (extracellular domain Glu 21-Leu 590), sequence (O60603 21-590): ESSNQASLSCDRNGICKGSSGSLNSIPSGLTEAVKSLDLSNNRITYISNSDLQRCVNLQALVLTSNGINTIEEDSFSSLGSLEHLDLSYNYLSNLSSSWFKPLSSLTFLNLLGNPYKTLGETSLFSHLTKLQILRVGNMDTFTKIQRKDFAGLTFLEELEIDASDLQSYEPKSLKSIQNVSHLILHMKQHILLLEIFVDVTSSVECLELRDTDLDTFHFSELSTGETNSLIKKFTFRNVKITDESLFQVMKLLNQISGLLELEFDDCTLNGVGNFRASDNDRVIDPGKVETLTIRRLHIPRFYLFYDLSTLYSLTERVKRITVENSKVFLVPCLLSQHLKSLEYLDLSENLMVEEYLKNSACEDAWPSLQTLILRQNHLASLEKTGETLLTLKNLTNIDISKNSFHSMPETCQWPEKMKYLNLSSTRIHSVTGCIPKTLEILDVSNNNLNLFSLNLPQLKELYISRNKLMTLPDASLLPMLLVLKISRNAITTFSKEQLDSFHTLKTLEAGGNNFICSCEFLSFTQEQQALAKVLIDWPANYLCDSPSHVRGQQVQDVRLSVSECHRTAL

As to C(Pam2)SKKKK [Pam2CSK4 lipopeptide], the Kd (in general, the free concentration of one partner at which half of the binding sites on the other are occupied at equilibrium, for simple one-to-one binding) was found to be 5.34 µM.
